Test [1] deals with T1, native CD19 expressed on NALM6 tumor cells (UniProt P15391 20-556).
T1 construct: whole, on cells; also called CD19^+ NALM6; NALM6-wt
T1 sequence (looked up): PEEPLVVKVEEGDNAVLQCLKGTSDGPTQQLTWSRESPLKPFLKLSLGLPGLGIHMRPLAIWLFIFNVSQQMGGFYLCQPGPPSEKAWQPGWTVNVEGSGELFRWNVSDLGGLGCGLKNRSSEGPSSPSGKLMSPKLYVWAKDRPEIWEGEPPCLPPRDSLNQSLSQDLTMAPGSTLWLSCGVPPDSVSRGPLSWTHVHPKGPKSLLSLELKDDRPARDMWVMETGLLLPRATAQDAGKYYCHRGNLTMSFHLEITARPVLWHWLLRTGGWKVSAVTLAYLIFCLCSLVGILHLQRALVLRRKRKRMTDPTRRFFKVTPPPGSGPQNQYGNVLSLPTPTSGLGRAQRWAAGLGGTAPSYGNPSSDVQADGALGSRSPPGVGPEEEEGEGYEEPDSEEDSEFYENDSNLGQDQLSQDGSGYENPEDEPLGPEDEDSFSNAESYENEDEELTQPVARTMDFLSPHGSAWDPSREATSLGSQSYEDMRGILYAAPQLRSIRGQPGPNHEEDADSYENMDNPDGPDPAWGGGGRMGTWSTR
The test is described as follows: screen of scFv clones on CD19^+ NALM6 cells, Nalm6-CD19KO cells as negative control.
Description: To ensure that the up to (30) clones could recognize native CD19 expressed on tumor cells, the clones (scFv) were also screened against NALM6 tumor cell line positive (+) CD19 expression (NALM6 cell line+CD19). CD19 knockout Nalm6 cell line (NALM6 cell line⁻ CD1; or CD19KO Nalm6 cell line) were used as a negative control for the selection. CD19KO Nalm6 cell lines used for the screen were engineered CRISPR knocked-out (KO) Nalm6-CD19KO cells. Clones that bound CD19⁺ NALM6 tumor cells, but not CD19-NALM6 tumor cells (CD19K0) were selected (Step 4).

The next test deals with SIGLEC 7 (UniProt Q9Y286 19-467, limits assumed). Description: counter-selection of scFv clones against baculovirus and SIGLEC 7, 8 and 9.
Chain of SIGLEC 7 (Q9Y286 19-467 limits assumed): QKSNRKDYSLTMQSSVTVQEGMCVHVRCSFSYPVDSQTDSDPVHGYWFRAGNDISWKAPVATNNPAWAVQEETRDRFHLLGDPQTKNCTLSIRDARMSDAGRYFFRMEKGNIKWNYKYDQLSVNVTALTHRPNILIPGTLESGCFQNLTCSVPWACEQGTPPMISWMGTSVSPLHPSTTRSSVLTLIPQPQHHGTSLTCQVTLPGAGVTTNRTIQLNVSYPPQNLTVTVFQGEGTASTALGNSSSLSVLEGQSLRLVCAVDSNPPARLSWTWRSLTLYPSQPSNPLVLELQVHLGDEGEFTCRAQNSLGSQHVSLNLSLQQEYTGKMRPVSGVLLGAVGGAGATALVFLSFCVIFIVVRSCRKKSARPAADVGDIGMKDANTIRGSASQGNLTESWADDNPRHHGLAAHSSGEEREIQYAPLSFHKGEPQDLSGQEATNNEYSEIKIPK
The target in a further test is SIGLEC 8 (UniProt Q9NYZ4 17-499, limits assumed). The description is as above.
Chain of SIGLEC 8 (Q9NYZ4 17-499 limits assumed): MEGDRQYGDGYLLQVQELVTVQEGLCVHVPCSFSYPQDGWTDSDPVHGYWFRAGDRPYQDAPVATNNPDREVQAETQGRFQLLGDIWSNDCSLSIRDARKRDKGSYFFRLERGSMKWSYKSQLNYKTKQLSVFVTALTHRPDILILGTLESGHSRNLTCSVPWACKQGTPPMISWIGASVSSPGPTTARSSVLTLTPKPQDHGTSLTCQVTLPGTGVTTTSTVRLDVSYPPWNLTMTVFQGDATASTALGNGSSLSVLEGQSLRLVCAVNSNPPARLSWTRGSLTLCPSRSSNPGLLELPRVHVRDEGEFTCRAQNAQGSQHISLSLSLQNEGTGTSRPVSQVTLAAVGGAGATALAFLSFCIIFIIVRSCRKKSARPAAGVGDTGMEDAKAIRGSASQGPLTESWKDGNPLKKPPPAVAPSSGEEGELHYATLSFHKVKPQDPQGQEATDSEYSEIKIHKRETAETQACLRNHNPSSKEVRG
A further test addresses SIGLEC 9 (UniProt Q9Y336 18-463, limits assumed). Described as above.

Chain of SIGLEC 9 (Q9Y336 18-463 limits assumed): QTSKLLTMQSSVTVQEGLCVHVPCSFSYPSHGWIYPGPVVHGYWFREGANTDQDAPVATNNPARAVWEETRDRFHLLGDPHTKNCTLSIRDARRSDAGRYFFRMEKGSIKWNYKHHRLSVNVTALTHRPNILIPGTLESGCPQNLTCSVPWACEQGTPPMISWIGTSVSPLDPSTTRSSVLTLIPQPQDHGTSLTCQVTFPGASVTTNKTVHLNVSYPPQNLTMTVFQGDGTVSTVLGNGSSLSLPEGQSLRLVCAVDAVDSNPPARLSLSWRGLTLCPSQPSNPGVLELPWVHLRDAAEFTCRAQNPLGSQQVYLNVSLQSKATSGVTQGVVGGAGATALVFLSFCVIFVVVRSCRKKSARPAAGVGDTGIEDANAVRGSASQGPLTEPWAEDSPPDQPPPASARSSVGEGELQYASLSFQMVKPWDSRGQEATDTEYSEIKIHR
Description for SIGLEC 8: (§1) These up to 30 scFv clones were further screened based on their ability to bind baculovirus or SIGLEC. Clones that bound biotinylated baculovirus or SIGLEC 7, 8 and 9 were removed from consideration.
Description for SIGLEC 9: as §1

B1: CD19 7 scFv (P5) (scFv)
scFv: DIQMTQSPSSLSASVGDRVTITCRASQSISKYLNWYQQKPGKAPKLLIYDASSLQSGVPSRFSGSGSGTDFTLTISSLQPEDFATYYCQQSYTIPLTFGQGTKVEIKGGGGSGGGGSGGGGSQVQLVQSGAEVKKPGSSVKVSCKASGGTFSSYAFSWVRQAPGQGLEWMGGIVPLFGAVEYAQKFQGRVTITADESTSTAYMELSSLRSEDTAVYYCAREKGFYRYFDHWGQGTLVTVSS
notes: scFv clone from the display library, screened as a library clone; also called 46; clone 46
B1: the binding result in test [1] is “binds”.

B2: CD19 10 scFv (P6) (scFv)
scFv: DIQMTQSPSSLSASVGDRVTITCRASQTISRYLNWYQQKPGKAPKLLIYAASSLQSGVPSRFSGSGSGTDFTLTISSLQPEDFATYYCQQSYRPPLTFGQGTKVEIKGGGGSGGGGSGGGGSEVQLLESGGGLVQPGGSLRLSCAASGFTFSSYAMSWVRQAPGKGLEWVSTISAGGHGTYYADSVKGRFTISRDNSKNTLYLQMNSLRAEDTAVYYCARGAGYFDYWGQGTLVTVSS
notes: scFv clone from the display library, screened as a library clone; also called 47; clone 47
B2: in test [1], the binding result is reported as “binds”.

B3: CD19 16 scFv (P10) (scFv)
scFv: QSVLTQPPSVSGAPGQRVTISCTGSSSNIGAGYDVHWYQQLPGTAPKLLIYGNNNRPSGVPDRFSGSKSGTSASLAITGLQAEDEADYYCQSYDVSLGVWVFGGGTKLTVLGGGGSGGGGSGGGGSQLQLQESGPGLVKPSETLSLTCTVSGGSISSPSYYWGWIRQPPGKGLEWIGSIYYTGATYYNPSLKSRVTISVDTSKNQFSLKLSSVTAADTAVYYCARYGPAGVGFDYWGQGTLVTVSS
notes: scFv clone from the display library, screened as a library clone; also called 51; clone 51
On to B3, for which the binding result in test [1] is “binds”.

B4: CD19 E7 scFv (P4) (scFv)
scFv: DIQMTQSPSSLSASVGDRVTITCRASQDITRYLNWYQQKPGKAPKLLIYAASSLQSGVPSRFSGSGSGTDFTLTISSLQPEDFATYYCQQSYSYPPTFGQGTKVEIKGGGGSGGGGSGGGGSQVQLVESGGGVVQPGRSLRLSCAASGFTFRDYGMHWVRQAPGKGLEWVAVISYEGSNEYYADSVKGRFTISRDNSKNTLYLQMNSLRAEDTAVYYCARDRGFAGWYDYAFDPWGQGTLVTVSS
notes: scFv clone from the display library, screened as a library clone; also called 45; clone 45
For the molecule B4, the binding result was “no binding” with SIGLEC 7, “no binding” with SIGLEC 8, “no binding” with SIGLEC 9 and “binds” in test [1].

B5: CD19 18 scFv (P11) (scFv)
scFv: QSVLTQPPSVSGAPGQRVTISCTGSSSNIGAGYDVHWYQQLPGTAPKLLIYGTKNRPSGVPDRFSGSKSGTSASLAITGLQAEDEADYYCQSYDVRLKGWVFGGGTKLTVLGGGGSGGGGSGGGGSQLQLQESGPGLVKPSETLSLTCTVSGGSITSSSYYWGWIRQPPGKGLEWIGSIYYTGTTYYNPSLKSRVTISVDTSKNQFSLKLSSVTAADTAVYYCARYVGLSGGFDYWGQGTLVTVSS
notes: scFv clone from the display library, screened as a library clone; also called 52; clone 52
For B5, in test [1], the binding result is listed as “binds”.

B6: CD19 15 scFv (P9) (scFv)
scFv: DIQMTQSPSSLSASVGDRVTITCRASQPIRPYLNWYQQKPGKAPKLLIYDASSLQSGVPSRFSGSGSGTDFTLTISSLQPEDFATYYCQQSYSAPYTFGQGTKVEIKGGGGSGGGGSGGGGSEVQLLESGGGLVQPGGSLRLSCAASGFTFSSYAMSWVRQAPGKGLEWVSVISGGGANTYYADSVKGRFTISRDNSKNTLYLQMNSLRAEDTAVYYCARDWRYFDHWGQGTLVTVSS
notes: scFv clone from the display library, screened as a library clone; also called 50; clone 50
For the molecule B6, the binding result in test [1] is listed as “binds”.

B7: CD19 11 scFv (P7) (scFv)
scFv: DIQMTQSPSSLSASVGDRVTITCRASQSISSYLNWYQQKPGKAPKLLIYAASSLQSGVPSRFSGSGSGTDFTLTISSLQPEDFATYYCQQTGAVPYTFGQGTKVEIKGGGGSGGGGSGGGGSEVQLLESGGGLVQPGGSLRLSCAASGFTFRDYAMSWVRQAPGKGLEWVSAISESGIDTYYADSVKGRFTISRDNSKNTLYLQMNSLRAEDTAVYYCARVAGYDSDSSTYYDYMDVWGQGTLVTVSS
notes: scFv clone from the display library, screened as a library clone; also called 48; clone 48
For B7, the binding result in test [1] is “binds”.

B8: CD19 14 scFv (P8) (scFv)
scFv: DIQMTQSPSSLSASVGDRVTITCRASQSISNYLNWYQQKPGKAPKLLIYAASSLQSGVPSRFSGSGSGTDFTLTISSLQPEDFATYYCQQAYSAPITFGQGTKVEIKGGGGSGGGGSGGGGSEVQLLESGGGLVQPGGSLRLSCAASGFTFGDYAMSWVRQAPGKGLEWVSAISRGGHGTYYADSVKGRFTISRDNSKNTLYLQMNSLRAEDTAVYYCARLVGYGLDYWGQGTLVTVSS
notes: scFv clone from the display library, screened as a library clone; also called 49; clone 49
Regarding B8, in test [1], the binding result was “binds”.

B9: CD19 23 scFv (P12) (scFv)
scFv: DIQMTQSPSSLSASVGDRVTITCRASQSIYSYLNWYQQKRGKAPKLLIYDASSLQSGVPSRFSGSGSGTDFTLTISSLQPEDFATYYCQQSYTAPPTFGQGTKVEIKGGGGSGGGGSGGGGSEVQLLESGGGLVQPGGSLRLSCAASGFTFSNYAMSWVRQAPGKGLEWVSAISESGHGTYYADSVKGRFTISRDNSKNTLYLQMNSLRAEDTAVYYCARLDWAGFDVWGQGTLVTVSS
notes: scFv clone from the display library, screened as a library clone; also called 53; clone 53
Turning to B9, the binding result in test [1] is “binds”.

Values taken from patent US20240131068A1 (KITE PHARMA, published 2024).
